# Experimental data reported in the RNAGym collection of RNA variant scans (doi:10.1073/pnas.2313332121).
# B1: TPR t1 (parent)
# chain: GACCAAUCUGCCCUCAGAGCUCGAGAACAUCUUCGGAUGCAGAGGAGGCAGGCUUCGGUGGCGCGAUAGCGCCAACGUCCUCAACCUCCAAUGCAUCCCACCACAUGAUGAUGCCUGAAGAGCCUUGGUUUUUUG
# Variants of: B1
# Assay: polymerase ribozyme fitness, log enrichment relative to wild type (log ratio); higher = more active; in vitro selection for triplet polymerase activity
# In short: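 Mutant libraries of each subunit of a heterodimeric triplet polymerase ribozyme were built by PCR and transcribed. Each library went through one round of in vitro selection in triplicate: annealing with biotinylated primer, partner subunit and triplets, frozen incubation at −7 °C, gel excision of extended constructs, streptavidin-bead capture and RT-PCR. Input and output libraries were Illumina-sequenced; only genotypes with ≥10 input reads and ≥1 read per output were kept. Fitness is log2(genotype enrichment/wild-type enrichment), using inverse-variance-weighted replicate averages.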
row,Variant,polymerase ribozyme fitness (log ratio)
1,GACCAAACUGCCCUCAGAGCUCGAGAACAUCUUCGGAUGCAGAGGAGGCAGGCUUCGGUGGCGCGAUAGCGCAAACGUCCUGAACCUCCAAUGCAUCCCACCACAUGAUGAUGCCUGAAGAGCCUUGGUUUUUUG [U7A C73A C82G],-0.0183
2,GACCAAACUGCCCUCAGAGCUCGAGAACAUCUUCGGAUGCAGAGGAGGCAGGCUUCGGUGGCGCGAUAGCGCGAACGUCCUCAACCUCCAAUGCAUCCCACCACAUGAUGAUGCCUGAAGAGCCUUGGUUUUUUG [U7A C73G],-1.63
3,GACCAAACUGCCCUCAGAGCUCGAGAACAUCUUCGGAUGCAGAGGAGGCAGGCUUCGGUGGCGCGAUAGCGCCAACGUGCUCAACCUGCAAUGCAUCCCACCACAUGAUGAAGCCUGAAGAGCCUUGGUUUUUUG [U7A C79G C88G U112A],-1.87
4,GACCAAACUGCCCUCAGAGCUCGAGAACAUCUUCGGAUGCAGAGGAGGCAGGCUUCGGUGGCGCGAUAGCGCCAACGUCCUCAAUCUCCAAUGCAUCCCACCACAUGAUGAUGCCUGAAGAGCCGUGGUUUUUUG [U7A C85U U125G],-1.31
5,GACCAAACUGCCCUCAUAGCUCGAGAACAUCUUCGGAUGCAGAGGAGGCAGGCUUCGGUGGCGCGAUAGCGCCUACGUCCUCAACCUCCAAUGCAUCCCACCACAUGAUGAUGCCUAGAGAGCCUUGGUUUUUUG [U7A G17U A74U G117A A118G],-4.25
6,GACCAAACUGCCCUCAGAGCUCGAGAACAUCUUCGGAUACACAGCAGGCAGGCUUCGGUGGCGCGAUAGCGCCAACGUCCUCUACCUCCAAUGCAUCCCACCACAUGAUAAUGCCUGAAGAGCCUUGGUUUUUUG [U7A G39A G42C G45C A83U G110A],-5.83
7,GACCAAACUGCCCUCAGAGCUCGAGAACAUCUUCGGAUGCAGAAGAGGCAGGCUUCGGUGGCGCGAUGGCGCCAACGUCCUCAACCUCCAAUGCAUCCCACCACAUGAUGAUGCCUGAAGAGCCUUGGUUUUUUG [U7A G44A A68G],-5.14
8,GACCAAACUGCCCUCAGAGCUCGAGAACAUCUUCGGAUGCAGACGAGGCAGGCUUCGGUGGCGCGAUAGCGCCAACGUCCUCAACCUCCAAUGCAUCCCACCACAUGAUGAUGCCUGAAGAGCGUUGGGUUUUUU [U7A G44C C124G U129G G135U],-0.681
9,GACCAAACUGCCCUCAGAGCUCGAGAACAUCUUCGGAUGCAGAGGAGCCAGGCUUCGGUGGCGCGAUAGCGCCUACGUCCUCAACCUCCAAUGCAUCCCACCACAUGAUGAUACCUGAAGAGCCUUGGUCUUGUG [U7A G48C A74U G113A U130C U133G],-1.3
10,GACCAAACUGCCCUCAGAGCUCGAGAACAUCUUCGGAUGCAGAGGAGUCAGGCUUCGGUGGCGCGAUAGCGCCAACGUCCUCAACCUCCAAUGAAUUCCACCACAUGAUGAUGCCUGAAGAGCCUUGGUUUUUUG [U7A G48U C94A C97U],-2.33
11,GACCAAACUGCCCUCAGAGCUCGAGAACAUCUUCGGAUGCAGAGGAGGCAGACUUCGGUGGCGCGAUACCGCCAACGUCCUCAACCUCCAAUGCAUCCCACCACAUGAUGAUGCCUGAAGAGCCUUGGUUUUUUG [U7A G52A G69C],-2.28
12,GACCAAACUGCCCUCAGAGCUCGAGAACAUCUUCGGAUGCAGAGGAGGCAGGCUUCGGUCGCGCGAUAGCGUCAACGUCCUCAACCUCCAAUGCAUCCCACCACAUGAUGAUGCCUGAAGAGCCUUGGUUUUUUG [U7A G60C C72U],0.796
13,GACCAAACUGCCCUCAGAGCUCGAGAACAUCUUCGGAUGCAGAGGAGGCAGGCUUCGGUGGCUCGAUAGCGCCAACCUCCUCAACCUCCAAGGCAUCCCACCACAUGAUGAUGCCUGAAGAGCCUUGGUUUUUUG [U7A G63U G77C U92G],-5.12
14,GACCAAACUGCCCUCAGAGCUCGAGAACAUCUUCGGAUGCAGAGGAGGCAGGCUUCGGUGGCGCGAUAUCGCCAACGUCCUCAACCUGCAAUGCAUCCCACCACAUGAUGAUGCCUGAAGAACCUUGGUUUUUUG [U7A G69U C88G G122A],-1.88
15,GACCAAACUGCCCUCAGAGCUCGAGAACAUCUUCGGAUGCAGAGGAGGCAGGCUUCGGUGGCGCGAUAGCCCCAACGUCCGCAACCUCCAAUGCAUCCCACCACAUGAUGAUGCCUGAAGAGCCUUGGUUUUUUG [U7A G71C U81G],-5.8
16,GACCAAACUGCCCUCAGAGCUCGAGAACAUCUUCGGAUGCAGAGGAGGCAGGCUUCGGUGGCGCGAUAGCGCCAACGUCCUCAACCUCCAAUGCAUCCCACCACAUGAUGAUUCCUGAAGAGCCUUGGUUUUUUG [U7A G113U],-2.15
17,GACCAAACAGACCUCAGAGCUCGAGAACAUCUUCGGAUGCACAGGAUGCAGGCUUCGGUGACGCGAUAGCGCCAACGUCCUCAACCUCCAAUGCAUCCCACCACAUGAUGAUGCCUGUAGAGCCUUGGUUUUUUG [U7A U9A C11A G42C G47U G61A A118U],-4.21
18,GACCAAACCGCUCUCAGAGCUCGAGAACAUCUUCGGAUGCAGAGGAGGCAGGCUUCCGUGGCUCGAUAGCGCCAACGUCCUCAACCUCCAAUGCAUCCCACCACAUGAUGAUGCCUGAAGAGCCUUGGUUUUUUG [U7A U9C C12U G57C G63U],-0.748
19,GACCAAACUGCCCACAGAGCUCGAGAACAUCUUCGGAUGCAGAGGAGGCAGGCUUCGGUGGCGCGAUAGCGCCAACGUCCUCAACCUCCAAUGCAUCCCACCACAUGAUGAUGCCUGAGGAGCCUUGGUUUUUUG [U7A U14A A119G],0.0679
20,GACCAAACUGCCCUCAGAGCUCGAGAACAUCCUCGGAUGCAGAGGAGGCAGGCUCCGGUCGCGCGAUAGCGCCAACGUCCUCAACCUCCAAUGCAUCCCACCACAUGAUGAUGCCUGAAGAGCCUUGGAUUUUUG [U7A U32C U55C G60C U129A],-1.82
21,GACCAAACUGCCCUCAGAGCUCGAGAACAUCUACGGAUGCAGAGGAGGCAGGCUUCGGUGGCGCGAUAGCGCCAACGUCCUCAACCUCCAAUGCAUCCCACCACAUGAUGAUGCCUGAAGAGCCUUGGUUUUUUG [U7A U33A],-3.98

row,Variant,polymerase ribozyme fitness (log ratio)
1,GACCAAACUGCCCUCAGAGCUCGAGAACAUCUACGGAUGCAGAGGAGGCAGGCUUCGGUGGCGCGAUAGUGCCAACGUCCUCAACCUCCAAUGCAUCCCACCACAUGAUGAUGCCUGAAGAGCCUUGGUUUUUUG [U7A U33A C70U],-5.78
2,GACCAAACUGCCCUCAGAGCUCGAGAACAUCUUCGGAUGCAGAGGAGGCAGGCUACGGUGGCGCGAUAGCGCCAACGUCCUCAACCUCCAAUGCAUCCCACCACAUGAUGAUGCCCGAAGAGCCUUGGUUUUUUG [U7A U55A U116C],-0.198
3,GACCAAACUGCCCUCAGAGCUCGAGAACAUCUUCGGAUGCAGAGGAGGCAGGCUUCGGUGGCGCGAUAGCGCCAACGUCCUCAACCACGAAUGCAUCCCACCACAUGAUGAUGCCUGAAGAGCCUUGGUUUUUUG [U7A U87A C89G],-1.86
4,GACCAAACUGCCCUCAGAGCUCGAGAACAUCUUCGGAUGCAGAGGAGGCAGGCUUCGGUGGCGCGAUAGCGCCAACGUCCUCAACCUCCAAUGCAUCCCACCACAAGAUGAUGCCUGAAGAGCAUUGGUUUUUUG [U7A U106A C124A],1.98
5,GACCAACCUGCCCUCUGAGCUCGAGAACAUCUUAGGAUGCAGAGGAGGGAGGCUUCGGUGGCGCGAUAGCGCCAACGUCCUCAACCUCCAAUGCAUCCCACCACAUGAUGAUGCCUGAAGAGCCUUGGUUUUUUG [U7C A16U C34A C49G],-4.01
6,GACCAACCUGCCCUCAGAGCUCGAGAACGUCUUCGGAUGCAGAGGAGGCAGGCUUCGGUGGCUCGAUAGCGCCAACGUCCACAACCUCCAAUGCAUCCCACCACAUGAUGAUGCCUGAAGAGCCUUGGUUUCUUG [U7C A29G G63U U81A U132C],-3.82
7,GACCAACCUGCCCUCAGAGCUCGAGAACAUCUUCGGUUGCAGAGGAGGCAGGCUUCGGUAGCGCGAUAGCGCCAACGUCCUCAACCUCCAAUGCAUCCCACCACAUGAUGAUGCCUGAAGAGCCUUGGUUUUUUG [U7C A37U G60A],-0.133
8,GACCAACCUGCCCUCAGAGCUCGAGAACAUCUUCGGAUGCAGAGGAGGCAGGCUUCGGUGGCGCGAUAGCGCCAACGUCCUCAACCUCCAAUGCAUCCCUCCACAUGAUGAUGCCUGAAGAGCCUUGGUUUUUUG [U7C A100U],-0.808
9,GACCAACAUGCCCUCAGAGCUCGAGAACAUCUUCGGAUGCAGAGGAGGCAGGCUUCGGUGGAGCGAUAGCGCCAACGUCCUCAACCUCCAAUGCAUCCCACCACAUGAUGAUGCCUGAAGAGCCUUGGUUUUUUG [U7C C8A C62A],-0.194
10,GACCAACAUGCCCUCAGAGCUCGAGAACAUCUUCGGAUGCAGAGGAGUCAGGCUUCGGUGGCUCGAUAGCGCCAACGUCCUCAACCUCCAAUGCAUCCCACCACAUGAUGAUGCCUGAAUAGUCUUGGUUUUUUG [U7C C8A G48U G63U G120U C123U],-0.338
11,GACCAACGUGCUCUCAGACCUCGAGAACAUCUUCGGAUGCAGAGGAGGCAGGCUUCGGUGGCGCGAUAGCGCCAACGUCCUCAACCUCCAAUGCAUCCCACCACAUGAUGAUGCAUGAAGAGCCUUGCUUUUUUG [U7C C8G C12U G19C C115A G128C],-1.55
12,GACCAACUUGCCCUCAGAGCUCGAGAACAUCUUGGGAUGCAGAGGAGGCAGGCUUCGGUGGCGCGAUAGCGCCAACGUCCUCAACCUCCAAUGCAUCCCACCACAUGAUGAUGCCUGAAGAGCCUUGGUUUUUUG [U7C C8U C34G],-6.08
13,GACCAACUUGCCCUCAGAGCUCGAGAACAUCUUGGGAUGCAGAGGAGGCAGGCUUCGGUGGCGCGAUAGCGCUAACGUCCUCAACCUCCAAUGCAUCCCACCACAUGAUGAUGCCUGAAGAGCCUUGGUUUUUUG [U7C C8U C34G C73U],-5.57
14,GACCAACCUGCACUCAGAGCUCGAGAACAUCUUCGGAUGCAGAGGAGGCAGGCUUCGGUGGCGCGAUAGCGCCAAGGUCCUCAACCUCCAAUGCAUCCCACCACAUGAUGAUGCCUGAAGAGCCUUGGUUUUUUG [U7C C12A C76G],0.0602
15,GACCAACCUGCACUCAGAGCUCGAGAACAUCUUCGGAUGCAGAGGAGGCAGGCUUCGGUGGCGCGAUAGCGCCAACGUCCUCAACCUACAAUGCAACCCACCAUAUGAUGAUGCCUGAAGAGCCUUGGUUUUUUG [U7C C12A C88A U96A C104U],-1.43
16,GACCAACCUGCCAUCAGAGCUCGAGAAGAUCUUCGGAUGCAGAGGAGGCAGGCUUCGGUGGCGCGAUAUCGCCAACGUCCUCAACCUCCAAUGCAUCCCUCCACAUGAUGAUGCCUGAAGAGCCUUGGUUUUUUG [U7C C13A C28G G69U A100U],-2.4
17,GACCAACCUGCCAUCAGAGCUCGAGAACAUCUUCGGAUGCAGAGGAGGCAGGUUUCGGUGGCGCGAUAGCGCCAACGUCCUCAACCUCCAAUGCAUCCCACCACAUGAUGAUGCCUGAAGAGCCUUGGUUUUUUG [U7C C13A C53U],-0.742
18,GACCAACCUGCCAUCAGAGCUCGAGAACAUCUUCGGAUGCAGAGGAGGCAGGCUUCGGUGGCGCGAUAGCGCCAACGUCCUCAACCUCCAAUACAUCCCACAUCAUGAUGAUGCCUGAAGCGCCUUGGUUUUUUG [U7C C13A G93A C102A A103U A121C],-4.79
19,GACCAACCUGCCUUAAGAGCUCGAGAACAUCUUCGGAUGCAGAGAAGGCAGGCUUCGGUGGCGCGAUAGCGACAACGUCCUCAACCUCCAAUGCAUCCCACCACAUGAUGAUGCCUGAAGAGCCUUGGUUUUUUG [U7C C13U C15A G45A C72A],-0.674
20,GACCAACCUGCCCUCAGAGCUCGAGAAUAUCUUCGGAUGCAGAGGAGGUCGGCUUCGGUGGCGCGAUAGCGCCAACGUCCUCAACCUCCAAUGCAUCCCACCACAUGAUGAUGCCUGAAAAACCUUGGUUUUUUG [U7C C28U C49U A50C G120A G122A],-2.33
21,GACCAACCUGCCCUCAGAGCUCGAGAACAUUUUCGGAUGCAGAGGAGGCAGGCUUCGGUGCCGCGAUAGCUGCAACGUCCUCAACCUCCAAUGCAUCCCACCACAUGAUGAUGCCUGAAUAGCCUUGGUUUUUUG [U7C C31U G61C G71U C72G G120U],-5.19
